Results taken from patent publication US20140120095A1 (Boehringer Ingelheim, published 2014).
Read-outs that look alike come from different tables or passages of the source.

Experiments:
[1] = target: T1, recombinant human VEGF165 (human, UniProt P15692-4 27-191, biotinylated in the competition assays); test: SPR Biacore, VEGF165
T1 construct: Bought protein; also called hVEGF165; rhVEGF165

[2] = target: T2, VEGF (used to stimulate HUVEC cells) (UniProt P15692-4 27-191, limits assumed); test: cell-based or functional assay
[3] = target: T2, VEGF (used to stimulate HUVEC cells); test: cell-based or functional assay; remark: listed apart in the source
[4] = target: T2, VEGF (used to stimulate HUVEC cells); test: cell-based or functional assay; remark: listed apart in the source
[5] = target: T2, VEGF (used to stimulate HUVEC cells); test: cell-based or functional assay; remark: listed apart in the source
[6] = target: T1, recombinant human VEGF165; test: AlphaScreen, hVEGF165/hVEGFR2-Fc competition; design: % inhibition: concentration or dose not given beside the values
Target sequence in this assay (P15692 other isoform, or with tags, fused parts or gaps): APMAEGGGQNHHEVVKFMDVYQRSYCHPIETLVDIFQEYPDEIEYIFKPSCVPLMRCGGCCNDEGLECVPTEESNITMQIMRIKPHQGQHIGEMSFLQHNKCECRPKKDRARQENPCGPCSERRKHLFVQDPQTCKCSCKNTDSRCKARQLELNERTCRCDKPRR

[7] = target: T1, recombinant human VEGF165; test: AlphaScreen, hVEGF165/hVEGFR2-Fc competition
[8] = target: T1, recombinant human VEGF165; test: AlphaScreen, hVEGF165/hVEGFR1-Fc competition, -HSA
[9] = target: T1, recombinant human VEGF165; test: AlphaScreen, hVEGF165/hVEGFR2-Fc competition, -HSA
[10] = target: T1, recombinant human VEGF165; test: AlphaScreen, hVEGF165/hVEGFR1-Fc competition, -HSA; remark: listed apart in the source
[11] = target: T1, recombinant human VEGF165; test: AlphaScreen, hVEGF165/hVEGFR2-Fc competition, -HSA; remark: listed apart in the source
[12] = target: T1, recombinant human VEGF165; test: AlphaScreen, hVEGF165/hVEGFR2-Fc competition, +5 uM HSA
Description: (§1) These 2 competition assays are also performed after preincubation of the VHHs with 5 μM human serum albumin.

[13] = target: T1, recombinant human VEGF165; test: as above; remark: listed apart in the source
Description: as §1

[14] = target: T3, VEGFC (UniProt P49767 103-227, limits assumed); test: binding ELISA on coated VEGFC (Example 12.8), receptor positive control, OD 450 nm
T3 sequence (looked up): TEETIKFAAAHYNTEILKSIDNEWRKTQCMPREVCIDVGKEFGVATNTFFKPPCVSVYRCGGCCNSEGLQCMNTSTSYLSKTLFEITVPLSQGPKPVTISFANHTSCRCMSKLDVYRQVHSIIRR
Description: Binding to VEGFB, VEGFC, VEGFD and PIGF is assessed via a solid phase binding ELISA. […] Wells are blocked with a casein solution (1% in PBS). […] As positive controls serial dilutions of the appropriate receptors are taken along and detected with horseradish peroxidase (HRP)-conjugated goat anti-human IgG, Fc specific antibody (Jackson Immuno Research Laboratories Inc., West Grove, Pa., USA) and a subsequent enzymatic reaction in the presence of the substrate TMB (3,3′,5,5′-tetramentylbenzidine) (Pierce, Rockford, Ill., USA).

[15] = target: T4, human VEGFR2-Fc chimera (R&D Systems) (human, UniProt P35968 20-764); test: binding ELISA on coated recombinant human VEGF121 (Example 12.7), positive control, OD 450 nm
T4 construct: also called hVEGFR2-Fc; VEGFR2-huFc
Description: Binding to recombinant human VEGF121 is assessed via a solid phase binding ELISA. […] Wells are blocked with a casein solution (1% in PBS).

B1: VEGFBII23B04 (VHH, not shown: small tags and cut ends)
VHH: EVQLVESGGGLVQTGDSLRLSCEVSGRTFSSYSMGWFRQAQGKEREFVVAISKGGYKYDSVSLEGRFTISKDNAKNTVYLQINSLKPEDTAVYYCASSRAYGSSRLRLADTYEYWGQGTQVTVSS
notes: also called VEGFBII23B4; VEGFBII23B04 (wt)
Kd [1]: 560 pM
IC50, VEGF HUVEC proliferation assay [2]: 360 pM
IC50, VEGF HUVEC Erk phosphorylation assay [3]: 370 pM
% inhibition, VEGF HUVEC proliferation assay [4]: 92%
IC50, VEGF HUVEC proliferation assay [4]: 680 pM
% inhibition, VEGF HUVEC proliferation assay, -HSA [5]: 87%
IC50, VEGF HUVEC proliferation assay, +HSA [5]: 690 pM
IC50, VEGF HUVEC proliferation assay, -HSA [5]: 780 pM
% inhibition [6]: 100%
IC50 [6]: 169 pM
% inhibition [7]: 100%
IC50 [7]: 152 pM
% inh [8]: 48%
IC50 [8]: 450 pM
% inh [9]: 100%
IC50 [9]: 220 pM
% inh [10]: 44%
IC50 [10]: 430 pM
% inh [11]: 100%
IC50 [11]: 190 pM
% inh [12]: 100%
IC50 [12]: 300 pM
% inh [13]: 100%
IC50 [13]: 200 pM

B2: human VEGFR2-Fc chimera (Fc fusion, UniProt P35968 20-764, looked up)
chain: ASVGLPSVSLDLPRLSIQKDILTIKANTTLQITCRGQRDLDWLWPNNQSGSEQRVEVTECSDGLFCKTLTIPKVIGNDTGAYKCFYRETDLASVIYVYVQDYRSPFIASVSDQHGVVYITENKNKTVVIPCLGSISNLNVSLCARYPEKRFVPDGNRISWDSKKGFTIPSYMISYAGMVFCEAKINDESYQSIMYIVVVVGYRIYDVVLSPSHGIELSVGEKLVLNCTARTELNVGIDFNWEYPSSKHQHKKLVNRDLKTQSGSEMKKFLSTLTIDGVTRSDQGLYTCAASSGLMTKKNSTFVRVHEKPFVAFGSGMESLVEATVGERVRIPAKYLGYPPPEIKWYKNGIPLESNHTIKAGHVLTIMEVSERDTGNYTVILTNPISKEKQSHVVSLVVYVPPQIGEKSLISPVDSYQYGTTQTLTCTVYAIPPPHHIHWYWQLEEECANEPSQAVSVTNPYPCEEWRSVEDFQGGNKIEVNKNQFALIEGKNKTVSTLVIQAANVSALYKCEAVNKVGRGERVISFHVTRGPEITLQPDMQPTEQESVSLWCTADRSTFENLTWYKLGPQPLPIHVGELPTPVCKNLDTLWKLNATMFSNSTNDILIMELKNASLQDQGDYVCLAQDRKTKKRHCVVRQLTVLERVAPTITGNLENQTTSIGESIEVSCTASGNPPPQIMWFKDNETLVEDSGIVLKDGNRNLTIRRVRKEDEGLYTCQACSVLGCAKVEAFFIIEGAQEKTNLE
notes: also called hVEGFR2-Fc; VEGFR2-huFc; not shown: human Fc part of the bought chimera; not described
EC50 (read off the curve) [14]: ~4000 pM

B3: recombinant human VEGF121 (R&D Systems) (ligand, UniProt P15692-9 27-147, looked up)
chain: APMAEGGGQNHHEVVKFMDVYQRSYCHPIETLVDIFQEYPDEIEYIFKPSCVPLMRCGGCCNDEGLECVPTEESNITMQIMRIKPHQGQHIGEMSFLQHNKCECRPKKDRARQEKCDKPRR
notes: also called rhVEGF121
binding result [15]: binds
